Target: MGAT1 (GnT1) (UniProt P26572)
Assay: co-immunoprecipitation, western blot
Conditions: reference: wild type, mitotic; sites S12

## MAN1A1 (Golgi α-1,2-mannosidase IA) (from UniProt P33908) S12A, mitotic
  binding against the reference: stronger
